This note sets out measurements from publication PMC10811823.

A short description of one data set: western blot. The settings on record: glycan changed form; control: control RAW264.7. In general terms: Immunoblotting shows a protein as a band on a membrane.
Data set [1] in a line: Co-IP/western after MG132. The settings on record: glycan changed form; control: control RAW264.7.
Data set [2] can be described thus: CHX chase, western blot (protein persistence). Conditions: glycan changed form; control: control RAW264.7.
Data set [3] can be described thus: Co-IP/western after MG132, HEK 293T. The settings on record: glycan lost; control: WT/LG.

B1: Lgals3bp (galectin 3 binding protein): RAW/shM1 (MGAT3 silenced) (protein)
parent chain: MALLWLLSVFLLVPGTQGTEDGDMRLVNGASANEGRVEIFYRGRWGTVCDNLWNLLDAHVVCRALGYENATQALGRAAFGPGKGPIMLDEVECTGTESSLASCRSLGWMVSRCGHEKDAGVVCSNDTTGLHILDLSGELSDALGQIFDSQQGCDLFIQVTGQGYEDLSLCAHTLILRTNPEAQALWQVVGSSVIMRVDAECMPVVRDFLRYFYSRRIEVSMSSVKCLHKLASAYGATELQDYCGRLFATLLPQDPTFHTPLDLYAYARATGDSMLEDLCVQFLAWNFEPLTQSESWSAVPTTLIQALLPKSELAVSSELDLLKAVDQWSTETIASHEDIERLVEQVRFPMMLPQELFELQFNLSLYQDHQALFQRKTMQALEFHTVPVEVLAKYKGLNLTEDTYKPRLYTSSTWSSLVMASTWRAQRYEYNRYNQLYTYGYGSVARYNSYQSFQTPQHPSFLFKDKQISWSATYLPTMQSCWNYGFSCTSNELPVLGLTTSSYSNPTIGYENRVLILCGGYSVVDVTSFEGSKAPIPTALDTNSSKTPSLFPCASGAFSSFRVVIRPFYLTNSTDMV
For the protein B1, the expression_or_secretion result in the data set “western blot” is “increases”. Besides, the “other: ubiquitination” value in data set [1] was “decreases”. Moreover, the degradation_or_half_life entry in data set [2] is reported as “increases”.

B2: Lgals3bp (galectin 3 binding protein): RAW/MGAT3 (MGAT3 overexpressed) (protein)
parent chain: B1 parent chain
Consider B2, for which the degradation_or_half_life result in data set [2] is on record as “decreases”.

B3: Lgals3bp (galectin 3 binding protein): N69A/LG (protein)
parent chain: B1 parent chain
Turning to B3, in data set [3], the “other: ubiquitination” value was “decreases”.
